Laboratory results taken from PMC11099923.

Legend:
[1] = target: human α7nAChR deletion mutant Δ428-432, His-tagged (human) (UniProt P36544); experiment: pull-down; His-tag α7nAChR (~3 μM) as bait mixed with strep-tag PICK1 PDZ (~10 μM), Ni-NTA resin, overnight at 4°C, 10 mM phosphate pH 7.8, 150 mM NaCl, 0.05% LDAO, two washes with 50 mM imidazole, elution with 500 mM imidazole, SDS-PAGE, band intensities
[2] = target: human α7nAChR deletion mutant Δ419-423, His-tagged (human) (UniProt P36544); experiment: as above
[3] = target: α7nAChR (Homo sapiens) (UniProt P36544); conditions: cited from earlier work

Substance	reduction of pulldown compared to WT α7nAChR [1] [%]	reduction of pulldown compared to WT α7nAChR [2] [%]	Kd [3] [nM]
PDZ domain of human PICK1 (Protein Interacting with C-kinase 1), strep-tagged (from UniProt Q9NRD5 19-110) (domain or fragment)	85	50	
PICK1 PDZ (from UniProt Q9NRD5)			3000
